From IntAct's records for PubMed 23644599 come the findings set out here.

First the molecules themselves.
B1: mRNA decay activator protein ZFP36 (Homo sapiens), P26651 (parent)
chain: MDLTAIYESLLSLSPDVPVPSDHGGTESSPGWGSSGPWSLSPSDSSPSGVTSRLPGRSTSLVEGRSCGWVPPPPGFAPLAPRLGPELSPSPTSPTATSTTPSRYKTELCRTFSESGRCRYGAKCQFAHGLGELRQANRHPKYKTELCHKFYLQGRCPYGSRCHFIHNPSEDLAAPGHPPVLRQSISFSGLPSGRRTSPPPPGLAGPSLSSSSFSPSSSPPPPGDLPLSPSAFSAAPGTPLARRDPTPVCCPSCRRATPISVWGPLGGLVRTPSVQSLGSDPDEYASSGSSLGGSDSPVFEAGVFAPPQPVAAPRRLPIFNRISVSE

The variants in one experiment derive from B1. The settings on record: with CNOT1, A5YKK6-2.
Sequence of CNOT1, A5YKK6-2 (A5YKK6 other isoform, or with tags, fused parts or gaps): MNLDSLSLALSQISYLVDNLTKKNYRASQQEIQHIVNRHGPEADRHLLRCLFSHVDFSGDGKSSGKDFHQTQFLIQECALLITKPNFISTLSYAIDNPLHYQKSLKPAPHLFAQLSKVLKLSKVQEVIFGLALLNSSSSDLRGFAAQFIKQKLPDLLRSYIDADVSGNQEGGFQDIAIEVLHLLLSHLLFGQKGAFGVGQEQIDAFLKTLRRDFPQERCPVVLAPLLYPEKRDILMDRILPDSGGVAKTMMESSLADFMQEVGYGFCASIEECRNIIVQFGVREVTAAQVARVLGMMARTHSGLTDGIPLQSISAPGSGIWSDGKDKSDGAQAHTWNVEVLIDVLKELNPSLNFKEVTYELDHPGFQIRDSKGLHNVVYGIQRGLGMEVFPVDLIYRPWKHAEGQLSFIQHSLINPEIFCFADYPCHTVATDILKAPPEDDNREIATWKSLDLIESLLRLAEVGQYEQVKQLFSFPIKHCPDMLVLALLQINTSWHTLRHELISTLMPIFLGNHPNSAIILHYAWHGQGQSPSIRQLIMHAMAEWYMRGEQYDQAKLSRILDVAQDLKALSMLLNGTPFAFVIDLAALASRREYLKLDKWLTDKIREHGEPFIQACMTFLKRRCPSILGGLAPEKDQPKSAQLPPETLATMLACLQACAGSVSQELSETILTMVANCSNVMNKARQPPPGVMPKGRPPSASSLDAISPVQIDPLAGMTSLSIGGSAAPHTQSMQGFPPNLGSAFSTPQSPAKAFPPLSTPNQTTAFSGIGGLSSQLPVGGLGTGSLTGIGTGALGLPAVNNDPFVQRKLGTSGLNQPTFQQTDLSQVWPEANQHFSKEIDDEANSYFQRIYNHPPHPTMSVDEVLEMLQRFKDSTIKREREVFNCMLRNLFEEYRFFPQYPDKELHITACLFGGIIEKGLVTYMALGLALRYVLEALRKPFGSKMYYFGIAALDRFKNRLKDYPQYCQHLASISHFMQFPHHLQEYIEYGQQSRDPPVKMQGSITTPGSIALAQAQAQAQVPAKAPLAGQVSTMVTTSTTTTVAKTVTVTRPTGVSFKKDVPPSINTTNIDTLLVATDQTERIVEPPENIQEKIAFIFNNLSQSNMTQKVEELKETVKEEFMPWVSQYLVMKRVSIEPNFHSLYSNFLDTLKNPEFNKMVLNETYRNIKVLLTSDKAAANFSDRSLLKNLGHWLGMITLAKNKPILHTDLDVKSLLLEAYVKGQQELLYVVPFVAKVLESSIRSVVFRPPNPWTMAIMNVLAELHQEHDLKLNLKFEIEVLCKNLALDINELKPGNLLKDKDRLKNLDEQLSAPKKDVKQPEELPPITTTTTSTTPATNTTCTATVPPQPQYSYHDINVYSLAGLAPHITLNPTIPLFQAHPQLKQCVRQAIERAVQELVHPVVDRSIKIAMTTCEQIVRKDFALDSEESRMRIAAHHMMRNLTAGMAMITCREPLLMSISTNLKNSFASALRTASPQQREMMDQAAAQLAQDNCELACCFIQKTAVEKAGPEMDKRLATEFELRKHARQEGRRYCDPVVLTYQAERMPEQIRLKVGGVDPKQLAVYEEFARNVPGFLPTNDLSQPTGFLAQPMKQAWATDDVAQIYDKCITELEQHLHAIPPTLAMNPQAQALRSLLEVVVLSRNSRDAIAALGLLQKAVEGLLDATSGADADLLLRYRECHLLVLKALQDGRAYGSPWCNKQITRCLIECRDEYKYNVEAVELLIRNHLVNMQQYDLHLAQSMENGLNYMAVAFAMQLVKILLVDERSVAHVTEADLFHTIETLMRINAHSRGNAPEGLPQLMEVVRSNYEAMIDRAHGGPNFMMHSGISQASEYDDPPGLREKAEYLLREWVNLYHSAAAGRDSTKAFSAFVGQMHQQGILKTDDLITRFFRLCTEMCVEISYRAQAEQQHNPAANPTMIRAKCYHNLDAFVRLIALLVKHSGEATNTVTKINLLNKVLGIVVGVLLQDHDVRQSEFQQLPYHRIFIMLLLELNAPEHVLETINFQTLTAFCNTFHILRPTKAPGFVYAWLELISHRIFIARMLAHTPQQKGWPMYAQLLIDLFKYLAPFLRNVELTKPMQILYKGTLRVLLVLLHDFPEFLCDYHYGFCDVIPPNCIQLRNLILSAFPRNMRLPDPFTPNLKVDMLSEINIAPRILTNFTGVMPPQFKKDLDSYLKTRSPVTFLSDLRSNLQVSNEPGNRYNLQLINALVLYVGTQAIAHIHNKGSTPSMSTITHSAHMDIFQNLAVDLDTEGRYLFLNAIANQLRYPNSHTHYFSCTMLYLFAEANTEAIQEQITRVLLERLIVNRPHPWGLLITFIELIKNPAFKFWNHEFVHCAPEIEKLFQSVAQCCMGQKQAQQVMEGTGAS
Turning to F319A, the “effect of a mutation on the interaction” value was “disrupting interaction strength”.

The next experiment covers variants of B1. The settings on record: with CNOT1, A5YKK6-2. The source holds these as a separate data set.
In the case of R315A, the “effect of a mutation on the interaction” value is given as “disrupting interaction strength”.
